T1: HA-CEBPD (C/EBP delta, NF-IL6beta) (UniProt P49716 1-269)
T1 sequence: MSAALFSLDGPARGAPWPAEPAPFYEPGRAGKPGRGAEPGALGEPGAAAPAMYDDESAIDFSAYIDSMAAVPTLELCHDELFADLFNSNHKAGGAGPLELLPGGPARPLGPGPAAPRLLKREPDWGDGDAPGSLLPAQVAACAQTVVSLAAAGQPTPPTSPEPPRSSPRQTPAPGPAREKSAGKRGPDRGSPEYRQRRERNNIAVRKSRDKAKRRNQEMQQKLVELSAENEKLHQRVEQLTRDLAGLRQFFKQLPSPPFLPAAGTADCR

B1: PTX3 promoter site 5 (dsDNA)
DNA 1: TAAAGGGTTGTGAAATAATAAC
DNA 2: GTTATTATTTCACAACCCTTTA
B2: PTX3 promoter site 1 (dsDNA)
DNA 1: TTTAATATTGTGCAACTTCCAC
DNA 2: GTGGAAGTTGCACAATATTAAA

Target: T1, HA-CEBPD (C/EBP delta, NF-IL6beta)
Experiment: EMSA, supershift

Binder | binding result
B1 | binds
B2 | binds

Source: article PMC6309870
